# Test results reported in IntAct's records for PubMed 15965644.
# B1: Hereditary hemochromatosis protein (Homo sapiens), Q30201 (parent)
# chain: MGPRARPALLLLMLLQTAVLQGRLLRSHSLHYLFMGASEQDLGLSLFEALGYVDDQLFVFYDHESRRVEPRTPWVSSRISSQMWLQLSQSLKGWDHMFTVDFWTIMENHNHSKESHTLQVILGCEMQEDNSTEGYWKYGYDGQDHLEFCPDTLDWRAAEPRAWPTKLEWERHKIRARQNRAYLERDCPAQLQQLLELGRGVLDQQVPPLVKVTHHVTSSVTTLRCRALNYYPQNITMKWLKDKQPMDAKEFEPKDVLPNGDGTYQGWITLAVPPGEEQRYTCQVEHPGLDQPLIVIWEPSPSGTLVIGVISGIAVFVVILFIGILFIILRKRQGSRGAMGHYVLAERE
# Variants of: B1
# Details: with b2mg_human B2M
row,Variant,effect of a mutation on the interaction
1,Q283P,disrupting interaction

# Variants of: B1
# Details: with tfr1_human TFRC
row,Variant,effect of a mutation on the interaction
1,Q283P,disrupting interaction
